The subject of one experiment is ESC-NPCs. The experiment can be described thus: GDF-11-induced upregulation of EMT marker Fibronectin in ESC-NPCs (immunofluorescence). The class given is cell-based. The settings on record: ESC-derived NPCs. The method, then:
FIG. 1. Smad2 inhibition (A) or simultaneous culture with GDF-15 (B) blocks GDF-11-induced upregulation of EMT marker Fibronectin in ESC-NPCs. Scale bar=100 μm.
(A) ESC-derived NPCs were pre-treated with DMSO or Smad2 inhibitor SB431542 (10 μM) for 1 h and then co-treated with PBS or GDF-11 (50 ng/ml) for another 7 days before harvest. (B) SC-derived NPCs were pre-treated with PBS or GDF-15 (50 ng/ml) for 1 h and then co-treated with PBS or GDF-11 (16.7 ng/ml) for another 7 days before harvest. GDF-15 was added daily while SB431542 and GDF-11 was only added one time in the beginning. Nucleus (DPAI) and EMT (Fibronectin) marker were then detected by immunofluorescence.

A further experiment deals with ARPE-19 cells. The experiment can be described thus: TGFβ-2-induced upregulation of phosph-Smad2 and EMT marker Fibronectin in ARPE-19 cells (Western blot). The format is cell-based, Human. The settings on record: N=3, P<0.05. The method, then:
FIG. 2: Simultaneous culture with GDF-15 reduces TGFβ-2-induced upregulation of phosph-Smad2 (A) and EMT marker Fibronectin (B) in ARPE-19 cells. (N=3, *P<0.05).
(N=3, *P<0.05). Human adult retinal pigment epithelial cells (ARPE-19) were pre-treated with PBS or GDF-15 (50 ng/ml) for 1 h and then co-treated with PBS or TGFβ-2 (1 ng/ml) for another hour (A) or 2 days (B) before harvest. For Fibronection detection, GDF-15 was added daily while TGFβ-2 was only added one time in the beginning. GAPDH (loading control), p-Smad2 and Fibronectin proteins were then detected by Western blot.
Background: In western blotting, separated proteins are transferred to a membrane and probed.

We go through 2 molecules from patent US12728152B2, “Growth and differentiation factor 15 for treatment of proliferative vitreoretinopathy therapy” (The Board of Trustees of the Leland Stanford Junior …, priority 2020, dated 2026).

As to `NC(=O)c1ccc(-c2nc(-c3ccc4c(c3)OCO4)c(-c3ccccn3)[nH]2)cc1` [SB431542, reference compound], the “GDF-11-induced upregulation of EMT marker Fibronectin” value in the experiment with ESC-NPCs (SB431542 10 μM pre-treated 1 h, then co-treated with GDF-11 (50 ng/ml) 7 days) is reported as “blocks”.

B1: GDF-15: secreted ligand of the TGF superfamily of proteins; human GDF-15 protein, SEQ ID NO: 1 (protein, listed as Homo sapiens)
chain: MPGQELRTVNGSQMLLVLLVLSWLPHGGALSLAEASRASFPGPSELHSEDSRFRELRKRYEDLLTRLRANQSWEDSNTDLVPAPAVRILTPEVRLGSGGHLHLRISRAALPEGLPEASRLHRALFRLSPTASRSWDVTRPLRRQLSLARPQAPALHLRLSPPPSQSDQLLAESSSARPQLELHLRPQAARGRRRARARNGDHCPLGPGRCCRLHTVRASLEDLGWADWVLSPREVQVTMCIGACPSQFRAANMHAQIKTSLHRLKPDTVPAPCCVPASYNPMVLIQKTDTGVSLQTYDDLLAKDCHCI
As to B1, the “GDF-11-induced upregulation of EMT marker Fibronectin” value with ESC-NPCs (GDF-15 50 ng/ml pre-treated 1 h (added daily), then co-treated with GDF-11 (16.7 ng/ml) 7 days) is listed as “blocks”. For the same molecule, the “TGFβ-2-induced upregulation of EMT marker Fibronectin” value in the experiment with ARPE-19 cells (GDF-15 50 ng/ml pre-treated 1 h (added daily), then co-treated with TGFβ-2 (1 ng/ml) 2 days) was “reduces”. In addition, the “TGFβ-2-induced upregulation of phosph-Smad2” value in the experiment on ARPE-19 cells (GDF-15 50 ng/ml pre-treated 1 h, then co-treated with TGFβ-2 (1 ng/ml) another hour) is on record as “reduces”.
